# Measurements from publication PMC12328794 (2025).
# B1: Bap31_CC2 D224K (domain or fragment)
# chain: LDVGNAEVKLEEENRSLKADLQKLKDELASTKQKLEKAENQVLAMRKQSEGLTKEYKRLLEEHAKLQAAVDGPMDKKEE
# Target: cytosolic domain of human Fis1 (Fis1_ΔTM, residues 1−123) (human, UniProt Q9Y3D6 1-123)
# Assay: SPR
binder,measurement,value
B1,Kd,156 µM
